Measured values from the supplement of paper PMC12338614.

B1: library; numbered along this chain (parent)
chain: MEVVDPQQLGMFTEGELMSVGMDTFIHRIDSTEVIYQPRRKRAKLIGKYLMGDLLGEGSYGKVKEVLDSETLCRRAVKILKKKKLRRIPNGEANVKKEIQLLRRLRHKNVIQLVDVLYNEEKQKMYMVMEYCVCGMQEMLDSVPEKRFPVCQAHGYFCQLIDGLEYLHSQGIVHKDIKPGNLLLTTGGTLKISDLGVAEALHPFAADDTCRTSQGSPAFQPPEIANGLDTFSGFKVDIWSAGVTLYNITTGLYPFEGDNIYKLFENIGKGSYAIPGDCGPPLSDLLKGMLEYEPAKRFSIRQIRQHSWFRKKHPPAEAPVPIPPSPDTKDRWRSMTVVPYLEDLHGADEDEDLFDIEDDIIYTQDFTVPGQVPEEEASHNGQRRGLPKAVCMNGTEAAQLSTKSRAEGRAPNPARKACSASSKIRRLSACKQQ

Variants of: B1
Assay: STK11 functional score (HeLa growth suppression), rescaled enrichment; synonymous median = 1, nonsense median = 0 (normalised score)
Settings: with HeLa; variant type: missense
Protocol: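 Deep mutational scan (TileSeq/POPCode codon randomisation) of full-length codon-optimised STK11 cDNA integrated at a Bxb1 landing pad (AAVS1) in HeLa cells. Restoring functional STK11 suppresses HeLa proliferation. Variant frequencies were measured by NGS before and after about two weeks of growth. The error-corrected enrichment log-ratio was rescaled so that synonymous median = 1 and nonsense median = 0, scores above 1 were compressed, and codon-level and three biological replicate scores were combined; error is the bootstrapped standard error. Scale: synonymous median = 1, nonsense median = 0; below 0.5 = damaging.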

STK11 functional score of substitutions, site by site:
Q137: D 0.482, A 1.02, Y 0.779, V 1.27, I 0.934, M 1.54, E 0.452, T 1.6, W 1.25, N 1.62, S 1.42, G 0.734, K 0.752, H 0.922, P 1.19, L 1.27, R 0.73
K146: V 0.152, Q 1.52, I 0.185, R 1.58, W 0.507, S 1.33, L 1.13, D 0.483, E 1.14, N 1.16, G 0.814, A 1.29, H 1.49
L140: C 0.555, Q 1.54, N 0.0882, I 1.15, R 0.437, E -0.3, T 0.232, W -0.107, H -0.0286, F -0.0987, S -0.236, A 0.543, G -0.0512, K 1.06, D 0.0191, V 0.909, P -0.0157, Y -0.0286
V128: P -0.00512, W 0.804, C 1.15, A 0.438, S 0.466, Y 1.41, G 0.233, R 0.15, N 1.28, Q 1.22, I 1.63, L 0.945, H 0.71, F 1.13
E145: Q 1.29, T 1.54, A 0.952, S 1.45, I 1.14, R 1.21, V 0.644, Y 1.12, W 1.41, G 0.981, P 1.36, H 1.31, N 1.46, L 1.16, C 1.41, F 0.968, M 1.3, D 1.11
Y126: R 0.256, C 0.357, W 0.105, S 0.6, G 0.669, V 0.762, P -0.144, L 0.421, F 0.719, T -0.0466, M 0.654, A 1.21, H 0.681
E130: W -0.0647, R 0.369, V 0.458, F 0.993, G 0.45, M 0.0424, Y 0.104, T 1.33, Q 0.94, S 1.4, K 1.36, I 0.376, L 0.308, P 0.365, C 0.373
M125: S 0.769, R 0.355, Q 1.68, Y 1.31, H 0.857, W 1.25, K 1.04, L 1, V 0.78, I 1.11, P 0.267, G 1.03
M136: E 0.000415, L 0.989, H -0.214, S 0.0685, W -0.224, K 0.279, Y -0.238, R -0.124, G -0.14, A 0.691, Q 0.0397, N -0.15, D -0.0676, P -0.132
Y131: H 1.2, A 0.676, E 0.174, D 0.0798, G 0.769, L 1.36, M -0.137, S 1.18, V 0.785, Q -0.0871, W 0.739, I 1.2, R 0.218, C 0.51
V143: S 1.44, A 1.34, G 1.33, T 1.59, P -0.133, Y 1.52, N 1.68, H 1.44, D 1.46, C 1.26, F 1.01, Q 0.751, R 1.29, I 1.09, W 0.622, L 1.17
G135: D 1.06, F 1.09, V 1.29, S 1.65, A 1.56, Y 1.32, Q 1.57, P 1.7, I 1.69, W 0.571, R 1.38, C 1.54, T 1.66, N 1.7, E 1.45, H 1.63, L 1.52, K 1.63
C132: R -0.197, N 1.23, G 0.44, E 1.06, H 1.16, S 0.556, V 0.601, T 1.52, L 0.813, K 1.25, A 1.47, I 1.32, Y 0.597, P -0.178, Q 1.58, F 0.255, W -0.606, M 1.35
M129: T 0.97, G 0.986, D 1.37, S 0.731, W 0.743, N 0.571, K 1.35, I 0.692, L 0.635, V 0.303, F 0.993, C 1.26, R 1.13
P144: W 1.61, V 0.879, D 1.46, K 1.63, H 0.422, E 1.63, S 0.825, T 1.18, I 0.87, G 1, L 0.658, Q 1.25, M 1.17, A 1.08, N 1.53, R 0.996
V133: I 1.24, T 1, P 1.53, E 0.588, H 1.47, A 1.41, D 1.53, S 1.06, C 1.35, W 0.452, G 1.14, L 0.982, N 1.17, R 0.519, Y 1.55
M139: S 0.816, Q 1.11, P 0.179, I 1.01, K 1.41, D -0.172, E 0.269, G 0.563, L 1.2, C 1.29, A 1.39, W 1.27, Y 1.53, V 0.965, T 1.18, R 0.918, N 0.949
E138: D 1.1, Y 1.08, C 0.386, M 1.27, V 0.367, N 0.232, R -0.217, S 1.26, I 1.48, L 1.15, A 1.09, K 1.59, W 1.19
C134: I 1.42, P 1.62, E 1.45, A 1.1, W 0.131, S 1.49, Q 0.746, R 1.52, T 1.61, Y 1.15, V 0.604, L 0.479, M 0.248, F 0.425, G 0.564
D141: W 0.69, T 0.00893, M 1.22, S 1.21, E 0.883, F 1.52, G 1.2, A 1.01, L 1.63, V 1.18, P -0.241
S142: L 1.16, C 1.17, H 1.44, Q 1.69, E 1.55, N 1.16, Y 1.13, I 0.895, M 0.933, P 1.34, V 1.51, T 1.47, R 0.875, D 1.52, K 1.52, G 1.62, W 0.385, A 1.63, F 1.41
M127: R 0.302, N 1.63, D 0.289, W 0.627, L 0.382, A 1.5, G 0.516, V 0.95, S 0.857, P 0.82, I 0.605, H 1.63, E 1.59, Y 1.24, T 1.32
